Where “and” joins values, the source holds several entries; their conditions need not be identical. Identical values can stand only once.
Tests used:
[1] = target: SUPPRESSOR OF OVEREXPRESSION OF CONSTANS 1 (SOC1), in vitro produced (Arabidopsis) (UniProt O64645); assay: native gel or EMSA; in vitro produced proteins (wheat germ TnT) mixed with a DY-682 labelled ~100 bp DNA probe containing a CArG-box (SAUR10 probe); protein complexes read from the shifted bands on DNA; anti-FLAG antibody added for supershift where FUL-FLAG was used
[2] = target: AGAMOUS (AG), in vitro produced (Arabidopsis) (UniProt P17839); assay: as above

UniProt O64645, sequence (O64645 whole entry): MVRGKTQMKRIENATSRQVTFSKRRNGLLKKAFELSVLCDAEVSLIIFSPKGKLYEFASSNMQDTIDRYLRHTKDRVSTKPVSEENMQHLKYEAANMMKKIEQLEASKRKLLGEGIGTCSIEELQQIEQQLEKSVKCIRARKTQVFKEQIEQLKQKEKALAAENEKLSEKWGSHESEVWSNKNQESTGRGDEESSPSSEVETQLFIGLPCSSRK
AGAMOUS (AG), in vitro produced, P17839 1-252 (natural protein; other documents disagree on this pair), sequence (P17839 whole entry): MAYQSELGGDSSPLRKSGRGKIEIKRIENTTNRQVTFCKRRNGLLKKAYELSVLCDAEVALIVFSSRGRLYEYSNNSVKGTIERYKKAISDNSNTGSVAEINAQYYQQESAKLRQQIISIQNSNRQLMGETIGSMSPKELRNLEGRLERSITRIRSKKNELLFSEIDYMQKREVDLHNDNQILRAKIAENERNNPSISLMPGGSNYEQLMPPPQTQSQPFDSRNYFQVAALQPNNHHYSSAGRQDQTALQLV

Row | stoichiometry N [1] | stoichiometry N [2] | Substance
1 | 2 and 4 | – | SUPPRESSOR OF OVEREXPRESSION OF CONSTANS 1 (SOC1), in vitro produced (from UniProt O64645 1-214) (natural protein)
2 | – | 2 | AGAMOUS (AG), in vitro produced, P17839 1-252 (natural protein; other documents disagree on this pair)

Reference: PMC11602133
